The text below walks through data of article PMC8667150.

Data set [1] is described as follows: Western blot of transfected AR42J cells. The note with it: glycan lost; control: wild type.
Data set [2] is described as follows: immunofluorescence, anti-myc and anti-calnexin, AR42J cells. The note with it: glycan lost; control: wild type.

B1: somatostatin receptor type 2 (SSTR2): N9Q (protein)
parent chain: MELTSEQFNGSQVWIPSPFDLNGSLGPSNGSNQTEPYYDMTSNAVLTFIYFVVCVVGLCGNTLVIYVILRYAKMKTITNIYILNLAIADELFMLGLPFLAMQVALVHWPFGKAICRVVMTVDGINQFTSIFCLTVMSIDRYLAVVHPIKSAKWRRPRTAKMINVAVWGVSLLVILPIMIYAGLRSNQWGRSSCTINWPGESGAWYTGFIIYAFILGFLVPLTIICLCYLFIIIKVKSSGIRVGSSKRKKSEKKVTRMVSIVVAVFIFCWLPFYIFNVSSVSVAISPTPALKGMFDFVVILTYANSCANPILYAFLSDNFKKSFQNVLCLVKVSGAEDGERSDSKQDKSRLNETTETQRTLLNGDLQTSI
On to B1, for which the expression_or_secretion result in data set [1] is listed as “decreases”. In data set [2], the localisation_or_trafficking result is “changes”.
